Data as given in patent CN115043938A (DUAN LIANGWEI; JIANG ZHIHUA; WANG HUI, dated 2022).

B1: 抗体Amb2 (antibody, V domains shown)
VH: EVQLLESGPGLVKPSETLSLTCTVSGGSISNSSYYWGWIRQPPGKGLEWIGSIYYSGSTYYNPSLKSRVTISVDTSKNQFSLKLSSVTAADTGVYYCASWLYGDPISFDYWGQGTLVTVSS
VL: not shown
B2: 抗体Amb1 (antibody, V domains shown)
VH: EVQLLESGTEVKKPGSSVKVSCKASGGTFSSYAISWVRQAPGQGLEWMGGIIPILGIANYAQKFQGRVTITADKSTSTAYMELSSLRSEDTAVYYCARERGYSGYGAAYYFDYWGQGTLVTVSS
VL: QSVLTQAPSVSGAPGQSVTISCTGSSSNIGAGYDVHWYQQLPGTAPKLLIYGNNNRPSGVPDRFSGSKSGTSASLAITGLQAEDEADYYCQSYDSSLSKGVFGGGTKLTVL

Key:
[1] = target: SARS-CoV-2野生型 S蛋白 (假病毒) (SARS-CoV-2 野生型, UniProt P0DTC2 14-1273); experiment: cell-based or functional assay
[2] = target: 新型冠状病毒野生型RBD蛋白 (RBD-WT, cat#Z03479, Gensript) (SARS-CoV-2 野生型, UniProt P0DTC2 319-541); experiment: BIAcore SPR, RBD immobilised on CM5 chip, antibody as analyte, 25℃, 1:1 model

Binder	假病毒中和 IC50 [1] [µg/mL]	Kd [2] [nM]
B1	0.064	164
B2	0.13	151
